One substance from patent publication US11903969 can be followed below.

The target of this test is CD19 on CD19+ cells (Nalm6-GL, Raji, donor B cells) (UniProt P15391). The test is described as follows: cell-based or functional assay.
Chain of UniProt P15391 (P15391 20-556 limits assumed): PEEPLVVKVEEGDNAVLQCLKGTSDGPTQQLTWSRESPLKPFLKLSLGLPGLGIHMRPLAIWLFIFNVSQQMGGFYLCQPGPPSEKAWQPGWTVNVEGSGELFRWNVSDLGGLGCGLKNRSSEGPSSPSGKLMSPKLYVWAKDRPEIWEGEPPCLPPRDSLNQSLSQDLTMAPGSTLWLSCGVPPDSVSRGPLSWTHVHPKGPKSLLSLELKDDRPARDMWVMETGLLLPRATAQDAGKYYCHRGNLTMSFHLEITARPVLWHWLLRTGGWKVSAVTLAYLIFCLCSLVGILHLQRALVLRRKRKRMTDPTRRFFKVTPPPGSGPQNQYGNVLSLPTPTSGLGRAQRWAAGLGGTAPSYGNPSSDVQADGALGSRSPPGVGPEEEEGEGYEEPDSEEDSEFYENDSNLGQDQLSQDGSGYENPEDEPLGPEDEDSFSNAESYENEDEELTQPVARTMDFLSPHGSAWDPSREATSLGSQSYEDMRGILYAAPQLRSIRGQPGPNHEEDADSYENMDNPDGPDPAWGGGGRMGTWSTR

“CD19.28.ζ-CAR (CD19-specific chimeric antigen receptor with FMC63 scFv, CD28 hinge, transmembrane and intracellular sequences and CD3ζ intracellular domain) (from UniProt P10747 114-220; P20963 52-164)”: the CD19+ cell population (B cells) remaining 24 hours after gene targeting came out at 2.53%.
